Several values for one entry are separate records, joined by “and”; a condition that tells them apart may be missing. Equal values may be shown once.
B1: Tryptophan synthase alpha chain, P0A877 (parent)
chain: MERYESLFAQLKERKEGAFVPFVTLGDPGIEQSLKIIDTLIEAGADALELGIPFSDPLADGPTIQNATLRAFAAGVTPAQCFEMLALIRQKHPTIPIGLLMYANLVFNKGIDEFYAQCEKVGVDSVLVADVPVEESAPFRQAALRHNVAPIFICPPNADDDLLRQIASYGRGYTYLLSRAGVTGAENRAALPLNHLVAKLKEYNAAPPLQGFGISAPDQVKAAIDAGAAGAISGSAIVKIIEQHINEPEKMLAALKVFVQPMKAATRS

Variants of: B1
Settings: Escherichia coli (strain K12); pH 7.8; 25 °C; Urea; Absorbance; Potassium phosphate 10 mM; transition: 3; structure 1WQ5; whole UniProt chain shown

Variant | denaturant m value | denaturant midpoint (higher = more stable) | ddG of mutation (higher = less stable)
MERYESLFAQLKERKEGAFVPFVTLGDPGIEQSLKIIDTLIEAGADALELGIPFSDPLADGPTIQNATLRAFAAGVTPAQCFEMLALIRQKHPTIPIGLLMYANLVFNKGIDEFYAQCEKVGVDSVLVADVPVEESAPFRQAALRHNVAPIFICPPNADDDLLRQIASYGRGYTCLLSRAGVTGAENRAALPLNHLVAKLKEYNAAPPLQGFGISAPDQVKAAIDAGAAGAISGSAIVKIIEQHINEPEKMLAALKVFVQPMKAATRS [Y175C] | 3 kcal/mol/M and 1.1 kcal/mol/M | 2.58 M and 3.71 M | –
MERYESLFAQLKERKEGAFVPFVTLGDPGIEQSLKIIDTLIEAGADALELGIPFSDPLADGPTIQNATLRAFAAGVTPAQCFEMLALIRQKHPTIPIGLLMYANLVFNKGIDEFYAQCEKVGVDSVLVADVPVEESAPFRQAALRHNVAPIFICPPNADDDLLRQIASYGRGYTYLLSRAGVTGAENRAALPLNHLVAKLKEYNAAPPLQEFGISAPDQVKAAIDAGAAGAISGSAIVKIIEQHINEPEKMLAALKVFVQPMKAATRS [G211E] | 3 kcal/mol/M and 1.5 kcal/mol/M | 2.73 M and 3.72 M | –
MERYESLFAQLKERKEGAFVPFVTLGDPGIEQSLKIIDTLIEAGADALELGIPFSDPLADGPTIQNATLRAFAAGVTPAQCFEMLALIRQKHPTIPIGLLMYANLVFNKGIDEFYAQCEKVGVDSVLVADVPVEESAPFRQAALRHNVAPIFICPPNADDDLLRQIASYGRGYTCLLSRAGVTGAENRAALPLNHLVAKLKEYNAAPPLQEFGISAPDQVKAAIDAGAAGAISGSAIVKIIEQHINEPEKMLAALKVFVQPMKAATRS [Y175C G211E] | 3 kcal/mol/M and 1.4 kcal/mol/M | 2.2 M and 3.49 M | 1.3 kcal/mol and 1 kcal/mol

From FireProtDB (doi:10.1021/bi00369a002)
